“And” between values parts separate entries of the source, which are not always exact repeats. Equal entries are not always repeated. Where two headings read alike, the source gives them in different places.
B1: FBF-2 RBD + CT: C. elegans FBF-2 RBD plus C-terminal tail, residues 164-632 (protein)
chain: SNNVLPTWSLDSNGEMRSRLSLSEVLDSGDLMKFAVDKTGCQFLEKAVKGSLTSYQKFQLFEQVIGRKDDFLKLSTNIFGNYLVQSVIGISLATNDDGYTKRQEKLKNFISSQMTDMCLDKFACRVIQSSLQNMDLSLACKLVQALPRDARLIAICVDQNANHVIQKVVAVIPLKNWEFIVDFVATPEHLRQICSDKYGCRVVQTIIEKLTADSMNVDLTSAAQNLRERALQRLMTSVTNRCQELATNEYANYIIQHIVSNDDLAVYRECIIEKCLMRNLLSLSQEKFASHVVEKAFLHAPLELLAEMMDEIFDGYIPHPDTGKDALDIMMFHQFGNYVVQCMLTICCDAVSGRRQTKEGGYDHAISFQDWLKKLHSRVTKERHRLSRFSSGKKMIETLANLRSTHPIYELQSSGHDSFKTDYFSTASEHDGPELEKNGIEEGSLMLEPRSNKSSVSVKFSSSGSHGDD
modifications: left off: His6-SUMO, N-terminal, cleaved
B2: FBF-2 RBD + CT Loop6A: FBF-2 RBD + CT with E592A, D594A, E597A, E599A, E604A, E605A (protein)
chain: SNNVLPTWSLDSNGEMRSRLSLSEVLDSGDLMKFAVDKTGCQFLEKAVKGSLTSYQKFQLFEQVIGRKDDFLKLSTNIFGNYLVQSVIGISLATNDDGYTKRQEKLKNFISSQMTDMCLDKFACRVIQSSLQNMDLSLACKLVQALPRDARLIAICVDQNANHVIQKVVAVIPLKNWEFIVDFVATPEHLRQICSDKYGCRVVQTIIEKLTADSMNVDLTSAAQNLRERALQRLMTSVTNRCQELATNEYANYIIQHIVSNDDLAVYRECIIEKCLMRNLLSLSQEKFASHVVEKAFLHAPLELLAEMMDEIFDGYIPHPDTGKDALDIMMFHQFGNYVVQCMLTICCDAVSGRRQTKEGGYDHAISFQDWLKKLHSRVTKERHRLSRFSSGKKMIETLANLRSTHPIYELQSSGHDSFKTDYFSTASAHAGPALAKNGIAAGSLMLEPRSNKSSVSVKFSSSGSHGDD
modifications: left off: His6-SUMO, N-terminal, cleaved
notes: FBF-2 RBD + CT with E592A, D594A, E597A, E599A, E604A, E605A
B3: FBF-2 RBD + CT L610A: FBF-2 RBD + CT mutated in the C-terminal tail (L610A) (protein)
chain: SNNVLPTWSLDSNGEMRSRLSLSEVLDSGDLMKFAVDKTGCQFLEKAVKGSLTSYQKFQLFEQVIGRKDDFLKLSTNIFGNYLVQSVIGISLATNDDGYTKRQEKLKNFISSQMTDMCLDKFACRVIQSSLQNMDLSLACKLVQALPRDARLIAICVDQNANHVIQKVVAVIPLKNWEFIVDFVATPEHLRQICSDKYGCRVVQTIIEKLTADSMNVDLTSAAQNLRERALQRLMTSVTNRCQELATNEYANYIIQHIVSNDDLAVYRECIIEKCLMRNLLSLSQEKFASHVVEKAFLHAPLELLAEMMDEIFDGYIPHPDTGKDALDIMMFHQFGNYVVQCMLTICCDAVSGRRQTKEGGYDHAISFQDWLKKLHSRVTKERHRLSRFSSGKKMIETLANLRSTHPIYELQSSGHDSFKTDYFSTASEHDGPELEKNGIEEGSLMAEPRSNKSSVSVKFSSSGSHGDD
modifications: left off: His6-SUMO, N-terminal, cleaved
B4: FBF-2 RBD: FBF-2 RNA-binding domain, residues 164-575, lacking the C-terminal tail (protein)
chain: SNNVLPTWSLDSNGEMRSRLSLSEVLDSGDLMKFAVDKTGCQFLEKAVKGSLTSYQKFQLFEQVIGRKDDFLKLSTNIFGNYLVQSVIGISLATNDDGYTKRQEKLKNFISSQMTDMCLDKFACRVIQSSLQNMDLSLACKLVQALPRDARLIAICVDQNANHVIQKVVAVIPLKNWEFIVDFVATPEHLRQICSDKYGCRVVQTIIEKLTADSMNVDLTSAAQNLRERALQRLMTSVTNRCQELATNEYANYIIQHIVSNDDLAVYRECIIEKCLMRNLLSLSQEKFASHVVEKAFLHAPLELLAEMMDEIFDGYIPHPDTGKDALDIMMFHQFGNYVVQCMLTICCDAVSGRRQTKEGGYDHAISFQDWLKKLHSRVTKERHRLSRFSSGKKMIETLANLRSTHPIYELQ
modifications: left off: His6-SUMO, N-terminal, cleaved

Legend:
[1] = system: gld-1 FBEa RNA; test: Electrophoretic mobility shift assay (EMSA), RNA binding; parameters: species or system C. elegans
Description: A 3′-Cy5-labeled synthetic RNA was ordered from IDT (gld-1 FBEa, 5′-[…]-3′). The FBF-2 proteins were serially diluted 2-fold from the highest concentration of 10 µM in the buffer used for gel filtration (20 mM HEPES pH 7.4, 150 mM NaCl, and 0.5 mM TCEP). 10 µl of the serially diluted protein samples were mixed with 10 µl RNA (10 nM) in a 2× buffer of 10 mM HEPES pH 7.4, 0.01% (v/v) Tween 20, 0.1 mg/ml BSA, 0.1 mg/ml yeast tRNA, and 2 mM DTT. For experiments in the presence of LST-1, LST-1 proteins at constant concentration were preincubated with FBF-2 at 4 °C for 2 h. The LST-1 concentrations were chosen based on their Kd’s for interaction with FBF-2. The final FBF-2 concentrations ranged from 5000 nM to 0.6 nM, and the LST-1 A or B concentrations were constant at 150 μM or 50 μM, respectively. The protein-RNA mixtures were incubated at 4 °C overnight. The samples were resolved on 10% TBE polyacrylamide gels run at constant voltage (100 V) with 1× TBE buffer at room temperature for 35 min. The gels were scanned and visualized with a Typhoon FLA 9500 imager using the Cy5 channel (excitation wavelength 635 nm). Band intensities were quantified with ImageQuant 5.2 (Cytiva). The data were fit with GraphPad Prism (version 9.2.0) using nonlinear regression with a one-site specific binding model. Mean Kd’s and standard error of the mean (SEM) from three or more technical replicates are reported (Supplementary Table 4). Full scan images for the replicates shown in the main figures and gel images for all replicates are included in a source data file.

[2] = system: gld-1 FBEa RNA; test: Surface plasmon resonance, RNA-binding kinetics; parameters: species or system C. elegans
Description: Kinetics of FBF-2 binding to the gld-1 FBEa RNA were measured using a 2-channel OpenSPR instrument (Nicoya). A 3′-biotin-labeled synthetic RNA was ordered from Horizon Discovery (gld-1 FBEa, 5′-AUCAUGUGCCAUACA-biotin-3′). The 3′-biotinylated RNA was immobilized on streptavidin-treated biotin sensor chips (Nicoya). All experiments were performed at 20 °C with a buffer of 20 mM HEPES, pH 7.4, 150 mM NaCl, and 2 mM DTT. SPR data were collected using OpenSPR (Nicoya, version 4.3). FBF-2 proteins were injected with a flow rate of 20 µl/min. Data were obtained at five different protein concentrations (25, 50, 100, 200, and 400 nM for wild type RBD + CT; 12.5, 25, 50, 100, and 200 nM for RBD + CT mutants and wild type RBD). Sensor chips were regenerated using 0.05% or 0.1% (v/v) SDS. For each experiment, five binding curves were simultaneously fit using a 1:1 binding model with the TraceDrawer software (Ridgeview Instruments, version 1.9.1). Mean values and standard deviation were calculated from two technical replicates. Despite our efforts, the fit of the binding curves for the association phase of FBF-2 RBD and FBF-2 RBD + CT mutants is poorer than the fit for FBF-2 RBD + CT WT. The appearance of the curves is consistent with the derived kon and koff values, and importantly, the curve fit for the dissociation phase is better.

[3] = Melting temperature of FBF-2 proteins; assay type: physicochemical; conditions: for thermal stability: in words, vs RBD alone or vs RBD + CT
Description: Mutants of FBF-2 RBD + CT: Y479A (5′-[…]), L610A (5′-[…]), and Loop6A (E592A, D594A, E597A, E599A, E604A, E605A; 5′-[…]) were generated by site-directed mutagenesis with the primers indicated. Plasmid sequences were verified by DNA sequencing (Azenta Life Sciences). Protein variants were expressed and purified like wild type proteins. Melting temperatures of wild type and mutant proteins were assessed by differential scanning […]. Reaction mixtures (total volume of 20 μl) contained ~0.3 mg/ml FBF-2 proteins and Sypro Orange dye (1:1000 dilution) (Sigma). Fluorescent intensity was collected from 25 °C to 95 °C (3 °C increment/min) with a real time PCR instrument (Applied Biosystems™ QuantStudio 7 Flex System) using excitation and emission wavelengths of 470 nm and 586 nm, respectively. Protein Thermal Shift^TM software (Applied Biosystems, version 1.4) was used to analyze protein melting curves and calculate melting temperatures (Tm).

[4] = no LST-1, mean ± SEM of independent technical replicates (n = 3-5), 4 °C overnight, pH 7.4, Cy5-RNA 5′-AUCAUGUGCCAUAC-3′
[5] = derived from on/off rates, mean ± SD, two technical replicates
[6] = mean ± SD, two technical replicates, 20 °C, pH 7.4, 1:1 model
[7] = mean ± SD, three technical replicates, ~0.3 mg/ml protein, Sypro Orange, 25 to 95 °C, fluorescence

Molecule | Kd [1, 4] [nM] | Kd ([1]; no LST-1, replicate 1) [nM] | Kd ([1]; no LST-1, replicate 2) [nM] | Kd ([1]; no LST-1, replicate 3) [nM] | Kd ([1]; no LST-1, replicate 4) [nM] | Kd ([1]; pH 7.4) | Kd [2, 5] [nM] | koff [2, 6] | kon [2, 6] | Kd ([2]; replicate 1) [nM] | kon ([2]; replicate 1) [M⁻¹ s⁻¹] | koff ([2]; replicate 1, read-out: koff) [s⁻¹] | Kd ([2]; replicate 2) [nM] | kon ([2]; replicate 2) [M⁻¹ s⁻¹] | koff ([2]; replicate 2, read-out: koff) [s⁻¹] | thermal stability [3] | Tm [3, 7] [°C] | Tm ([3]; replicate 1) [°C] | Tm ([3]; replicate 2) [°C] | Tm ([3]; replicate 3) [°C] | further results
B1 | 334 | 294 | 394 | 379 | 270 | 114 nM and 68 nM | 65.1 ± 21.1 | 0.00442 s⁻¹ | 71000 M⁻¹ s⁻¹ | 80 | 58700 | 0.00469 | 50 | 82500 | 0.00414 | increased thermal stability compared to the RBD alone | 40.24 ± 0.12 | 40.06 | 40.48 | 40.20 | fold weaker RNA-binding affinity ([1]; RBD + CT vs RBD alone): ~5 fold; Kd ([1]; with 150 μM LST-1 A, replicate 1): 111 nM; Kd ([1]; with 150 μM LST-1 A, replicate 2): 106 nM; fold faster off rate ([2]; RBD + CT vs RBD): ~ 5 fold
B2 | 101 | 122 | 100 | 81 |  | 166 ± 21 nM | 9.5 ± 4.2 | 0.94 ± 0.05 x10^-3 s^-1 | 10.9 ± 4.3 x10^4 M^-1 s^-1 |  | 78000 | 0.00097 |  | 139000 | 0.00091 | only modestly decreased the thermal stability | 37.58 ± 0.05 | 37.54 | 37.68 | 37.54 | Kd [1]: 142 nM and 175 nM and 180 nM
B3 | 51 | 38 | 32 | 66 | 30 | 82 ± 18 nM | 9.4 ± 3.6 | 1.36 ± 0.11 x10^-3 s^-1 | 15.5 ± 4.7 x10^4 M^-1 s^-1 | 11.9 | 121000 | 0.00144 | 6.8 | 188000 | 0.00128 | melting temperature of the mutated protein near that of the RBD alone | 35.63 ± 0.05 | 35.72 | 35.58 | 35.58 | Kd [1]: 61 nM and 93 nM and 91 nM; Kd ([1]; no LST-1, replicate 5): 89 nM
B4 | 70 | 75 | 62 | 98 | 44 |  | 6.6 ± 2.3 | 0.00086 s⁻¹ | 136000 M⁻¹ s⁻¹ | 8.2 | 120000 | 0.000979 | 5 | 151000 | 0.00075 |  | 36.32 ± 0.05 | 36.42 | 36.28 | 36.28 | Kd ([1]; in the presence of 50 μM LST-1 B, mean ± SEM, n = 3, 4 °C overnight, pH 7.4): 176 nM; Kd ([1]; with 50 μM LST-1 B, replicate 1): 148 nM; Kd ([1]; with 50 μM LST-1 B, replicate 2): 180 nM; Kd ([1]; with 50 μM LST-1 B, replicate 3): 201 nM

Reference: PMC10641069, “Intra- and inter-molecular regulation by intrinsically-disordered regions governs PUF protein RNA binding” (Nature Communications, 2023)
